Results: the supplement of paper PMC7877785
± gives the uncertainty stated by the source.

Experiment: self-splicing fitness, log relative to wild type (ln ratio); higher = more splicing; Tetrahymena group I intron in knt gene, E. coli kanamycin selection, DiMSum; sequences stand for … in CUCUCU…GGAGGGAAAAGUUAUCAGGCAUGCACCUGGUAGCUAGUCUUUAAACCAAUAGAUUGCAUCGGUUUAAAAGGCAAGACCGUCAAAUUGCGGGAAAGGGGUCAACAGCCGUUCAGUACCAAGUCUCAGGGGAAACUUUGAGAUGGCCUUGCAAAGGGUAUGGUAAUAAGCUGACGGACAUGGUCCUAACCACGCAGCCAAGUCCUAAGUCAACAGAUCUUCUGUUGAUAUGGAUGCAGUUCACAGACUAAAUGUCGGUCGGGGAAGAUGUAUUCUUCUCAUAAGAUAUAGUCGGACCUCUCCUUAAUGGGAGCUAGCGGAUGAAGUGAUGCAACACUGGAGCCGCUGGGAACUAAUUUGUAUGCGAAAGUAUAUUGAUUAGUUUUGGAGUACUCGUGGUCG
Summary of the method: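 Fitness was computed with DiMSum as the error-weighted combination of replicate fold changes, kanamycin versus none, each normalised to wild type. The library randomised all eight intron nucleotides of the P1ex region, with the intron placed in the knt kanamycin-resistance gene on pET-22b(+) in E. coli BL21(DE3). Six replicate transformations were grown overnight at 37°C or 30°C on LB agar with or without 25 μg/mL kanamycin, plus 100 μg/mL carbenicillin, 50 μM IPTG and 0.2% rhamnose. Pooled colonies were amplicon-sequenced on an Illumina HiSeq 2500.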

Sequence	self-splicing fitness (ln) (30 °C)	self-splicing fitness (ln) (37 °C)
GCUCAGCAAUAUUACGGACG	-1.11 ± 0.079	-0.474 ± 0.11
GCUCAGCAAUAUUACGGCCG	-3.86 ± 0.27	-2.15 ± 0.27
GCUCAGCAAUAUUACGGCUC	-0.525 ± 0.13	0.408 ± 0.17
GCUCAGCAAUAUUACGGGUU	-1.29 ± 0.1	-1.09 ± 0.1
GCUCAGCAAUAUUACGGUGC	-1.82 ± 0.19	-1.29 ± 0.16
GCUCAGCAAUAUUACGUAAA	-0.495 ± 0.064	0.264 ± 0.086
GCUCAGCAAUAUUACGUAUC	-0.849 ± 0.078	0.011 ± 0.077
GCUCAGCAAUAUUACGUCAG	-4.87 ± 0.42	-3.23 ± 0.16
GCUCAGCAAUAUUACGUGAC	-1.88 ± 0.092	-1.03 ± 0.11
GCUCAGCAAUAUUACGUGCG	-1.32 ± 0.084	-0.22 ± 0.1
GCUCAGCAAUAUUACGUGGG	-3.65 ± 0.19	-1.85 ± 0.16
GCUCAGCAAUAUUACGUGUG	-1.26 ± 0.063	-0.824 ± 0.074
GCUCAGCAAUAUUACGUUCA	-0.466 ± 0.095	-0.686 ± 0.12
GCUGAGCAAUAUUACGAACA	-3.44 ± 0.36	-2.89 ± 0.38
GCUGAGCAAUAUUACGAAUA	-2.55 ± 0.29	-1.53 ± 0.39
GCUGAGCAAUAUUACGAAUC	-1.15 ± 0.12	-0.914 ± 0.17
GCUGAGCAAUAUUACGAAUU	-2.46 ± 0.22	-1.36 ± 0.19
GCUGAGCAAUAUUACGACAU	-2.265 ± 0.018	-1.08 ± 0.035
GCUGAGCAAUAUUACGACCU	-2.35 ± 0.26	-1.15 ± 0.33
GCUGAGCAAUAUUACGAUCG	–	-0.335 ± 0.25
GCUGAGCAAUAUUACGCAAA	-4.1 ± 0.39	-1.55 ± 0.29
GCUGAGCAAUAUUACGCAAU	-2.2 ± 0.26	-1.9 ± 0.23
GCUGAGCAAUAUUACGCACA	-3.2 ± 0.39	-3.05 ± 0.4
GCUGAGCAAUAUUACGCACU	-1.78 ± 0.17	-0.125 ± 0.2
GCUGAGCAAUAUUACGCCGU	–	-0.103 ± 0.24

Sequence	self-splicing fitness (ln) (30 °C)	self-splicing fitness (ln) (37 °C)
GCUGAGCAAUAUUACGCUUU	-2.42 ± 0.12	-2.33 ± 0.18
GCUGAGCAAUAUUACGGAUA	-2.7 ± 0.16	-1.8 ± 0.14
GCUGAGCAAUAUUACGGGCA	-1.76 ± 0.39	-2.69 ± 0.36
GCUGAGCAAUAUUACGGGUG	-1.72 ± 0.087	-1.29 ± 0.11
GCUGAGCAAUAUUACGGUCA	-2.69 ± 0.15	-2.2 ± 0.14
GCUGAGCAAUAUUACGGUCU	-2.03 ± 0.2	-1.65 ± 0.21
GCUGAGCAAUAUUACGUCAU	-3.26 ± 0.43	-0.856 ± 0.3
GCUGAGCAAUAUUACGUGCA	-1.81 ± 0.19	-0.958 ± 0.19
GCUGAGCAAUAUUACGUUAG	-2.86 ± 0.12	-1.74 ± 0.17
GCUUAGCAAUAUUACGAAAG	-1.52 ± 0.13	-0.485 ± 0.19
GCUUAGCAAUAUUACGAACC	-0.273 ± 0.23	-0.336 ± 0.27
GCUUAGCAAUAUUACGAACG	-0.817 ± 0.099	0.062 ± 0.14
GCUUAGCAAUAUUACGAAGG	-0.605 ± 0.12	-0.64 ± 0.21
GCUUAGCAAUAUUACGACGG	-1.89 ± 0.17	-0.935 ± 0.18
GCUUAGCAAUAUUACGAGCU	-2.37 ± 0.19	-1.89 ± 0.34
GCUUAGCAAUAUUACGAUAA	-2.12 ± 0.13	-1.69 ± 0.12
GCUUAGCAAUAUUACGAUCU	-1.12 ± 0.12	0.155 ± 0.13
GCUUAGCAAUAUUACGCAAA	-2.95 ± 0.27	-1.51 ± 0.2
GCUUAGCAAUAUUACGCAGG	-1.27 ± 0.19	-2.97 ± 0.27
GCUUAGCAAUAUUACGCAUG	-2.06 ± 0.27	-0.0774 ± 0.2
GCUUAGCAAUAUUACGCCUA	-2.32 ± 0.28	-1.05 ± 0.22
GCUUAGCAAUAUUACGCGCU	-2.33 ± 0.16	-2.47 ± 0.21
GCUUAGCAAUAUUACGCGGG	-3.43 ± 0.22	-2.82 ± 0.32
GCUUAGCAAUAUUACGCUUA	-0.849 ± 0.11	-0.925 ± 0.14
GCUUAGCAAUAUUACGCUUC	-3.27 ± 0.47	-1.54 ± 0.29

Sequence	self-splicing fitness (ln) (30 °C)	self-splicing fitness (ln) (37 °C)
GCUUAGCAAUAUUACGGAAC	-0.644 ± 0.15	-0.955 ± 0.14
GCUUAGCAAUAUUACGGAGA	-2.02 ± 0.14	-0.596 ± 0.12
GCUUAGCAAUAUUACGGAGC	-2.97 ± 0.19	-2.57 ± 0.41
GCUUAGCAAUAUUACGGAGG	-1.54 ± 0.1	-0.819 ± 0.094
GCUUAGCAAUAUUACGGCAA	-2.6 ± 0.17	-2.6 ± 0.17
GCUUAGCAAUAUUACGGCCG	-1.9 ± 0.34	-1.48 ± 0.36
GCUUAGCAAUAUUACGGUAG	-2.53 ± 0.4	–
GCUUAGCAAUAUUACGGUCU	-0.834 ± 0.083	-0.0218 ± 0.11
GCUUAGCAAUAUUACGUAAU	-0.0411 ± 0.068	0.545 ± 0.083
GCUUAGCAAUAUUACGUCUG	-2.33 ± 0.16	-1 ± 0.15
GCUUAGCAAUAUUACGUCUU	-1.1 ± 0.1	-0.549 ± 0.12
GCUUAGCAAUAUUACGUUAU	-1.38 ± 0.093	-0.881 ± 0.12
GCUUAGCAAUAUUACGUUGA	-2.65 ± 0.2	-1.15 ± 0.16
GCUUAGCAAUAUUACGUUGG	-1.59 ± 0.1	-0.814 ± 0.14
GGAAAGCAAUAUUACGAAGU	-2.79 ± 0.16	-1.97 ± 0.18
GGAAAGCAAUAUUACGACAA	-1.71 ± 0.12	-1 ± 0.14
GGAAAGCAAUAUUACGAGUU	-1.86 ± 0.1	-1.08 ± 0.12
GGAAAGCAAUAUUACGCCUC	-1.14 ± 0.16	-1.03 ± 0.19
GGAAAGCAAUAUUACGCCUU	-1.07 ± 0.29	-1.29 ± 0.38
GGAAAGCAAUAUUACGCUAG	-2.03 ± 0.22	-0.857 ± 0.29
GGAAAGCAAUAUUACGGCUU	-1.08 ± 0.091	-0.393 ± 0.14
GGAAAGCAAUAUUACGGGAA	-2.5 ± 0.36	-2.92 ± 0.26
GGAAAGCAAUAUUACGGGGG	-3.94 ± 0.26	-1.45 ± 0.21
GGAAAGCAAUAUUACGGUCG	0.127 ± 0.092	-0.296 ± 0.12
GGAAAGCAAUAUUACGGUGC	-3.36 ± 0.27	-1.62 ± 0.23
